Assay results: US6372467B1, “P54s6k and p85s6k genes, proteins, primers, probes, and detection methods” (President and Fellows of Harvard College, priority 1998, dated 2002)

How the values were obtained:
p54^S6K = experiment: In vitro kinase assay (GST-S6 substrate) of 167 anti-p54^S6K antiserum immunoprecipitates from mitogen-treated 293 cells; assay type: cell-based, human; conditions: EGF 250 ng/ml or insulin 200 nM for 20 minutes
Description: (§1) 293 cells were treated with serum (10%), EGF (250 ng/ml), or insulin (200 nM) for 20 minutes, lysed, and the lysates were immunoprecipitated with 167 anti-p54^S6K antiserum or with N2 anti-p70^S6k antiserum. Phosphorimager™ counts from an in vitro kinase assay of the immunoprecipitates using GST-S6 as the substrate are shown.
(§2) Antibodies were made using standard techniques, such as those described in Harlow and Lane (Antibodies: A Laboratory Manual, Cold Spring Harbor Press, New York. 1988). The cells were starved and then stimulated with serum, EGF, or insulin, or left unstimulated. Rapamycin or wortmannin were also incubated with the cells prior to serum stimulation when indicated.
(§3) Lysates from 293 cells transfected with HA-p54^S6K or HA-p54^S6K KR were immunoblotted with anti-HA Ab. (FIG. 3B bottom left panel). […] This is of interest since a majority of the p70^S6k phosphorylation sites are conserved in p54^S6K (FIG. 1B). […] Finally, the activation kinetics of p54^S6K and p70^S6k were compared.

p70^S6k = experiment: In vitro kinase assay (GST-S6 substrate) of N2 anti-p70^S6k antiserum immunoprecipitates from mitogen-treated 293 cells; assay type: cell-based, human; conditions: EGF 250 ng/ml or insulin 200 nM for 20 minutes
Description: as §1, §2, §3

## insulin
p54^S6K
  p54^S6K kinase activity (stimulation by mitogen): stimulated
p70^S6k
  p70^S6k kinase activity (activation by mitogen): strongly activated

## EGF
p54^S6K
  p54^S6K kinase activity (stimulation by mitogen): to a small degree
p70^S6k
  p70^S6k kinase activity (activation by mitogen): only mildly activated
